# In patent publication US20150225457A1:
# Target: mouse CEACAM1 on SEB-responsive T cells (mouse), P31809
# Assay: cell-based or functional assay
binder,measurement,value
"mouse CEACAM1 N-domain Fc fusion protein, P31809 35-142 (Fc fusion, UniProt P31809 35-142, looked up, not shown: a dimerising Fc or GST) EVTIEAVPPQVAEDNNVLLLVHNLPLALGAFAWYKGNTTAIDKEIARFVPNSNMNFTGQAYSGREIIYSNGSLLFQMITMKDMGVYTLDMTDENYRRTQATVRFHVHP",TIM3 up-regulation on SEB-responsive T-cells after in vitro re-stimulation (% Mean Fluorescence),29
